The experiment deals with MHC class II (HLA-DR1) on human LG-2 cells (human (endogenous in LG-2)). Put plainly: radioligand binding.

As for SMEZ-2, recombinant (natural protein), the KD, high affinity site is 25 nM and the KD, low affinity site was 1000 nM.
